Data: patent US20080026077A1, “METHODS AND COMPOSITIONS OF GENE DELIVERY AGENTS FOR SYSTEMIC AND LOCAL THERAPY” (priority 2002, published 2008)
Where two headings read alike, the source gives them in different places. Marks after values point to notes of the source that are not given here. No end group written: not given here.

Columns and labels:
[1] = tibia, 24 hours after oral dosing, 4 mg/kg alendronate, with or without 4× molar BAC-A6
Method: Male Swiss CFW mice 25-28 g are fed or fasted overnight and subsequently lightly anesthetized with isoflurane by inhalation prior to oral dosing. Mice are administered 0.2 ml of the dosing solution. 24 hrs after dosing the mice are sacrificed and the tibia collected. […] The amount of 14CO2 is quantified by scintillation counting.

[2] = Oral gavage of zanamivir with various BAC analogs, plasma zanamivir; assay type: in vivo, Male Swiss CFW mice; details: fasted mice, 1 mg/kg zanamivir, BAC 1x equal molar; for Increase in concentration above H2O control / Mean Plasma Zanamivir Concentration: 30 min
Text: Plasma zanamivir concentrations are quantified by LC/MS/MS analysis.

[3] = Critical micellar concentration (CMC) of BACs, dye solubilization method; assay type: physicochemical; details: DPH dye solubilization, 50 mM Tris buffer pH 8.0
Method: Briefly, serial dilutions of a 7 mg/ml solution of the BACs are made in 50 mM Tris buffer pH 8.0. 10 ul of the dye 1,6-diphenyl-1,3,5-hexatriene (DPH, Sigma) (0.4 mM in methanol) is added to each ml. After overnight RT incubation in the dark, the absorbance of the samples at 356 nm is recorded. Linear regression of the data points above baseline was performed and the calculated CMC derived from the x intercept. The results for thirteen different BACs are shown in Table 1 based on a chendoxycholamide of the detailed motifs.

[4] = Octanol/buffer partitioning of carboxyfluorescein mixed with BAC analogs; assay type: physicochemical; details: 4 nmoles carboxyfluorescein, 281 nmoles BAC
Method: Partitioning of the fluorescent compound carboxyfluorescein by a BAC of Formula I into the octanol phase of an octanol/buffer portioning system for a series of BAC compounds is determined following standard methods. […] The mixture is vortexed for 5 mins and the incubated at room temperature for 3 hours. The solution is centrifuged to facilitate complete phase separation and a 100 μl of aqueous material is withdrawn for fluorescent measurement.

[5] = In situ intestinal absorption, single pass perfusion of radiolabeled BAC/pDNA; assay type: in vivo; details: complexes with membrane translocating BAC
Method: In order to examine the capability of the BAC/pDNA complex to bind and/or be absorbed onto the intestinal lumen cells the absorption of nicked-radiolabeled pDNA in a single pass perfusion experiment is tested. Using isolated ileal or jejunal segments radio-labeled BAC/pDNA mixtures mixture is mixed with HEPES buffer, pH 7.4, and perused at jejunal (filled symbols) and ileal (open symbols) sites. After 30 min of steady state, sample fractions are collected and the absorbed fraction of BAC/pDNA calculated. BAC/pDNA mixtures used are pDNA:BAC 1:27,000 neutrally charged and 1:54,000 molar ratios positively charged. Uncomplexed pDNA is used as a control.

Compound	Increase in concentration above H2O control [2] [fold]	Mean Plasma Zanamivir Concentration [2] [ng/mL]	Calculated CMC concentration [3]	further results
NCCCC(O)(P(=O)(O)O)P(=O)(O)O [Alendronate, alendronate]				Bone deposition of 14C-alendronate, mean dpm/mg bone ([1]; Fasted mice): 3.92 dpm/mg; Bone deposition of 14C-alendronate, mean dpm/mg bone ([1]; Fed mice): 9.51 dpm/mg
CC(=O)N[C@H]1[C@H]([C@H](O)[C@H](O)CO)OC(C(=O)O)=C[C@@H]1N=C(N)N [Zanamivir, zanamivir, reference compound]	1			concentration at 30 min ([2]; male, Swiss CFW, mouse, plasma): 55 ng/mL
B7: chendoxycholamide bile acid conjugate, peptide Z = -RRRARRR (not fully specified (N-terminus); printed as -RRRARRR; also: chenodeoxycholamide bile acid conjugate, attachment not placed)	4	228	>5.0* mM	
C8: chendoxycholamide bile acid conjugate, peptide Z = -RRARRARR (not fully specified (N-terminus); printed as -RRARRARR; also: chenodeoxycholamide bile acid conjugate, attachment not placed)	4	223	4.4 mM	
Carboxyfluorescein				Fluorescence Units ([4]; aqueous phase after octanol/buffer partitioning): 78614; LogD ([4]; carboxyfluorescein, octanol/buffer): −1.638
D9: chendoxycholamide bile acid conjugate, peptide Z = -RARARARAR (not fully specified (N-terminus); printed as -RARARARAR; also: chenodeoxycholamide bile acid conjugate, attachment not placed)			1.7 mM	
N-E9 motif of chenoxycholamide (RAWARAWAR; also: chenodeoxycholamide bile acid conjugate, site not given here)	22	1227	1.2 mM	
membrane translocating BAC: 12-residue membrane translocating peptide (SEQ ID NO: 23) coupled to bile acid by an ether linkage (AAVLLPVLLAAP; also: coupled to bile acid by an ether linkage, site not given here)				in situ intestinal absorption compared with FIG. 7 [5]: comparable results to those depicted in FIG. 7
